From the DeepSol protein solubility set

Experiment: soluble on expression in E. coli; label from the status in PepcDB or PDB records

Row | Sequence | soluble on expression in E. coli
1 | MGSDKIHHHHHHMIIHKFIIHVLDKNSDTPILNDFEGRVSQDMDLFFQKKISKVSRDNDIRTAVFNDYSNNLIKKCCEQIIYDESSFLNSSKEIAAYLFDVMKLNATLESCDLAICLYSQKDEKKVAILKLDYNKSYTHSIEFKDDKFNIQMSKNEINIQETKTIKIGAIIGLSGVNDEYHLKVLDKDAEKEEVNSKFVTEFLNATKVKDDKYRTKMFKTFVDAYIANLYSDMKQGEDVRSILLYMLREKQNLDINEFADKAIKDDLKDSFKDHAEEKGIESFNIDKKWVEKNLKNRHIKTDTGFEVKGKMDDFEDFMKYGIRHNGNGTVDIVIKNVNFYDEK | not soluble
2 | KGLAIAADYRNAYRVGGDYYDFIPSNYDRIRSQDDPKLVQCVPWSIVIGDVMGKGVPAGLIMTMTRGMLRAEVLNRHSPAKILEHLNRVMYADLDNSHRFVTLFYSEYDPKTRTLSYSNAAHHPPLLWRAQTQNIEPLDTQGMLIGLDLDSSYEDAKVVLEVGDIILYYTDGFTDAVNSHGDRFDEENLVRVFQNACQNCQTPEAIVQELFTQVEKFTYPKVRGGDDMTLVVVQVQSEAIESHLCQHHDC | not soluble
3 | RKKPVSQSLEFPTRYSPYRPYRCVHQGCFAAFTIQQNLILHYQAVHKSDLPAFSAEVEEE | soluble
4 | MFVDRIVLSFRGAGLERANTCLRKGQRLRKACSHVFRPLCSSDLPVNLPTDLETKRVMKPPLAERESIWSYPRPPRVEPNTRHLRVVHNQVTIAETRRGYRVLEYSHPPSYYIPLDDIDLQYVMVSSKVRSTFCEFKGEATYYDVEVGWEVSEGAAWSYDFPTRAYRMLKDHIAFYPAKVDACWVDEYRVRPEPRSFYGGWVTPLVKGVYPEEDVEDDEDSSGGDGKDSATQ | soluble
5 | RPLTGLVMTGGGARAAYQVGALSAIMAILDPKARPGYPNPFPIICGTSAGAVNAAALACRADRPHLAVRRMRRLWASLETGMVYRADAPGLIRTGVRWLGLLSLGWMYAGLTRKRPQSLLDSSPLADLLGRVMDFDRMRHNLARGKLSALAITASGYTSGEHLTFYQSDRPIDPWHRFLRRAVPSAIGIDHIMASSAIPFVFPARPVRVHGQVEWCGDGSMRQLAPISPAIHLGATRVLVIGTGFHDDTHPEKREEDPPYPSLAQVGGHALSSIFLDGLSMDVERLERTNFLLSRGGQEAEPEFALRRVDVLALTPSQSLDQLALEHLDDMPSEARTLFRV | not soluble
6 | SAARRALKAVLVDLNGTLHIEDAAVPGAQEALKRLRATSVMVRFVTNTTKETKKDLLERLKKLEFEISEDEIFTSLTAARNLIEQKQVRPMLLLDDRALPEFTGVQTQDPNAVVIGLAPEHFHYQLLNQAFRLLLDGAPLIAIHKARYYKRKDGLALGPGPFVTALEYATDTKAMVVGKPEKTFFLEALRDADCAPEEAVMIGDDCRDDVDGAQNIGMLGILVKTGKYKAADEEKINPPPYLTCESFPHAVDHILQHLL | soluble
7 | MKFLLAVFLLAVCSLGESKKPKAQKVIYVQKVVPPQKQLSEYDLCKEQCRIESETQSNKERVELLKQEIDRAEQLLAEHNKHVDAPEIAPETYMEAGQVPPMRKASRYDHLKMAANKIVESTSELKNAVTGGGDN | not soluble
8 | MGSDKIHHHHHHMSRTITIDPVTRIEGHATITIRLDDAGSVADARLHVTEFRGFEAFCVGRSIWEMPGITARICGICPISHSIASARAGDAILGVDIPPAAEQLRRIANLASLIQSHALSFFHLCAADLLLGMDHDPSRRSLWGLLESRPDVARRGIRLRQIGQQIVSNLAGERVHPSWAVPGGVREPLDAERRRKVVELLPEGIAIIRSAFELLDEIYGRHGAEVGTYGDFPSLFAGLVGEDGGLEHYDGMLRFTDSSGAVVEEVPPDHYDLAIGERSEPWSYMKFPFYRNHAGRDGGGMFRVGPLARLNLCERAGTPEADRELQTFRQLRGTGGVVTGSFHYHHARLIEILHALERIGELLDDPAILDRHVRSEAGVNRRHGVGFCEAPRGTLFHDYEVDDDGLILRLNLLIATGQNNLAMNRTILEVARSHIKGGKVSEGILNRIEHGIRAYDPCLSCATHVYGRMPFQVLLLAPDGTVVDEIAS | not soluble
9 | MAKQKDNYLDYVPKHNSLFECRENKKGHVEVKVHNKGIFNRIAQLIARKPRYSYIELDDFGTFVWHSIDGVRSIYDIGQLVKEHFGDKAEPLYERLCYFIKLLHKNQFIVYMNKINKQINK | not soluble
10 | MSLARQVTAFNTGWQFKKGPFATDPMRAASQWDGKWETVEIPHTWNAMDMQVQSGSFYEGAGYYRKTQFFPHDLEGKRVFLRFEGVGACAEVYVNGKLAGTHKGGYSAFACEIGTALKLGAENEIIVKADNKARPDVIPVNQNLFGVYGGIYRPVWLIVTEQNNITVTDCASPGVYITQKDVSKKSADITVKVKLDNAGLQPAAVTLENTIYTQEGQKVGTHSRSFDLSPQGTQTYLSTFKLKNPHLWQGRKDPYLYKVVCRLMADGKVIDEVVQPLGVRKYEIVAGKGFFLNGEKYSMYGVTRHQDWWGLGSALKNEHHDFDLAAIMDVGATTVRFAHYQQSDYLYSRCDTLGLIIWAEIPCVNRVTGYETENAQSQLRELIRQSFNHPSIYVWGLHNEVYQPHEYTAALTRSLHDLAKTEDPDRYTVSVNGYGHMDHPVNLNADIQGMNRYFGWYEKKIQDIKPWVEQLEKDYPYQKLMLTEYGADANLAHQTEYLGDALNWGKPFYPETFQTKTHEYQWSIIKDHPYIIASYLWNMFDFAVPMWTRGGVPARNMKGLITFDRKTKKDSYFWYKANWSEEPVLYLTQREGHHHHHH | not soluble
11 | ASYWSLQDILLRQGYRENLHPDDLIEGYRELLADSVHRCLQSDVEVGLFLSGGIDSAAVAHFAAEKQDLHTFTVLSQSTFTNEDAKYAHWLAKDLHLPNHQVLYQLGNDELLQPESYKHLLWICETPFCGPEQLYKFHLHKYAKAIRPNLKVMLTGQGSDEFNGGYSTTLSPAENPSWEGFIESVNTMEMNRLHRLQGNIFRVWEEHFGLSPINLSYLKSNDSSQADPWQSYVLTKYRDLQMYNCWHEDRIAAANHIENRVPFLDHRLVEWVCGIPDGLRKDLLWDKSVLRKSLTNELHTSYTHRPKVPFFYGKDVRYTHKMMFHLLKKNNYQLIEEAFSHSDASSIIQVEHIHAIM | not soluble
12 | MDSRTKGKTVMEVGGDGVAVITLINPPVNSLSFDVLYNLKSNYEEALSRNDVKAIVITGAKGRFSGGFDISGFGEMQKGNVKEPKAGYISIDIITDLLEAARKPSVAAIDGLALGGGLELAMACHARISAPAAQLGLPELQLGVIPGFGGTQRLPRLVGLTKALEMILTSKPVKAEEGHSLGLIDAVVPPAELVTTARRWALDIVGRRKPWVSSVSKTDKLPPLGEAREILTFAKAQTLKRAPNMKHPLMCLDAIEVGIVSGPRAGLEKEAEVASQVVKLDTTKGLIHVFFSQRGTAKVPGVTDRGLVPRKIKKVAIIGGGLMGSGIATALILSNYPVILKEVNEKFLEAGIGRVKANLQSRVRKGSMSQEKFEKTMSLLKGSLDYESFRDVDMVIEAVIENISLKQQIFADLEKYCPQHCILASNTSTIDLNKIGERTKSQDRIVGAHFFSPAHIMPLLEIVRTNHTSAQVIVDLLDVGKKIKKTPVVVGNCTGFAVNRMFFPYTQAAMFLVECGADPYLIDRAISKFGMPMGPFRLCDLVGFGVAIATATQFIENFSERTYKSMIIPLMQEDKRAGEATRKGFYLYDDKRKAKPDPELKKYIEKARSISGVKLDPKLANLSEKDIIEMTFFPVVNEACRVFAEGIAVKAADLDIAGIMGMGFPPYRGGIMFWADSIGSKYIYSRLDEWSKAYGEFFKPCAFLAERGSKGVLLSAPVKQASSRL | soluble
13 | MRPVLLLCCLFLSATAQAEDCSPQTSVGSWCELPLAALHPTQQNVGLLQVEDDQAKLAGKKPKALERYLRKKEIPVVIGPGGRFYLTDRHHLSSALWRLDPKQGVPVKVIGRLPQASDFWEKMQENHWVWLHDARGAEIPPEALPDALAGLGDDPYRALAGYAEDENAFDKDRQSYFIEFHWARYFGERMHWRPISRATLPDDLKQALRLACEPAARELPGYRQDCPH | soluble
14 | MSLTLPDTDQLVAGIQSWIQCESPSNSPAGVTAMAHLAAEYARAVGLAVEIRPLNAEVGPLVHATNRAAGDTRPGVLILGHIDTVHPIGTLQDNPCRIDGDRLYGPGSYDMKAGIYLALSALRGLPSPDATALPVDFLLVPDEETGSHASREHIEHYAARAKYALVCEPARPNGGKCVTARKGTGMLRLNVKGRPAHAGMQHEKGRSAIREMAHQVLELESMTDYERGITVSVGTIAGGTVTNTVPAQCRCVVDFRVPDMGATEDVLRRMRNLCSVGPDMELDIDVELNRPPMVKTEAASALLQLAQDFAAQAGFALEDAPMTGGGSDANFTSAMGVPTLDGLGADGDGAHTLNEYILVSTLAARMRFWELLLKELHEGHHHHHH | soluble
